# Source: patent US20230340081A1 (Hoffmann-La Roche, published 2023)
# T1: consensus S-HBs protein of HBV genotype E (ConsHBAg_E) (hepatitis B virus genotype E (consensus), UniProt Q69603 174-399)
# T1 construct: also called genotype E S-HBs
# T1 chain: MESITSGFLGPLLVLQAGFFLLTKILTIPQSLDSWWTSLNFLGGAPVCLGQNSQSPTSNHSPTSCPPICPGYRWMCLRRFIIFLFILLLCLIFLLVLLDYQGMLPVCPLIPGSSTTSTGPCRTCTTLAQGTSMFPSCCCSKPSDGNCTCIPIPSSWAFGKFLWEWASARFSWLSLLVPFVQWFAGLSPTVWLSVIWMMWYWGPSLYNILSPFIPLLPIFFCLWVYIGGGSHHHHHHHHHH
# T2: consensus S-HBs protein of HBV genotype I (ConsHBAg_I) (hepatitis B virus genotype I (consensus), UniProt P31873 175-400)
# T2 construct: also called genotype I S-HBs
# T2 chain: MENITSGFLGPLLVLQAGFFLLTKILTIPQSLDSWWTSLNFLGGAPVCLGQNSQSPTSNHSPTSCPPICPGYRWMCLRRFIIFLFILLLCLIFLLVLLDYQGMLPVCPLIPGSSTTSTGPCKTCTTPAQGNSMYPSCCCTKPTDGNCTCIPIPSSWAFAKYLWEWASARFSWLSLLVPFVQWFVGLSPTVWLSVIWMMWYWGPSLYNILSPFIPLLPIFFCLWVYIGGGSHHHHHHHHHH
# Assays:
# [1] = target: HBV genotype D viruses (produced in HepG2.2.15 cell culture supernatant) (hepatitis B virus genotype D); assay: cell-based or functional assay
# [2] = target: T3, Adw S-HBs protein (adw HBsAg particles, GenHevac (Adw)) (hepatitis B virus, adw subtype); assay: ELISA, AUC of binding curve; parameters: unit not given beside the values
# T3 construct: also called GenHevac-B
# [3] = target: T4, Ayw S-HBs protein (ayw HBsAg particles, Engerix-B (Ayw)) (hepatitis B virus, ayw subtype); assay: ELISA, AUC of binding curve; parameters: unit not given beside the values
# [4] = target: T3, Adw S-HBs protein (adw HBsAg particles, …); assay: ELISA on recombinant HBV vaccine particles
# [5] = target: T4, Ayw S-HBs protein (ayw HBsAg particles, …); assay: ELISA on recombinant HBV vaccine particles
# [6] = target: T5, consensus S-HBs protein of HBV genotype A (ConsHBAg_A) (hepatitis B virus genotype A (consensus), UniProt P03141 175-400); assay: flow cytometry, S-HBs-transfected 293-F cells
# T5 construct: also called genotype A S-HBs
# [7] = target: T6, consensus S-HBs protein of HBV genotype B (ConsHBAg_B) (hepatitis B virus genotype B (consensus), UniProt Q9PWW3 175-400); assay: flow cytometry, S-HBs-transfected 293-F cells
# T6 construct: also called genotype B S-HBs
# [8] = target: T7, consensus S-HBs protein of HBV genotype C (ConsHBAg_C) (hepatitis B virus genotype C (consensus), UniProt P03140 175-400); assay: flow cytometry, S-HBs-transfected 293-F cells
# T7 construct: also called genotype C S-HBs
# [9] = target: T8, consensus S-HBs protein of HBV genotype D (ConsHBAg_D) (hepatitis B virus genotype D (consensus), UniProt P03138 164-389); assay: flow cytometry, S-HBs-transfected 293-F cells
# T8 construct: also called genotype D S-HBs; ConsD S-HBs
# [10] = target: T1, consensus S-HBs protein of HBV genotype …; assay: flow cytometry, S-HBs-transfected 293-F cells
# [11] = target: T9, consensus S-HBs protein of HBV genotype F (ConsHBAg_F) (hepatitis B virus genotype F (consensus), UniProt Q05496 175-400); assay: flow cytometry, S-HBs-transfected 293-F cells
# T9 construct: also called genotype F S-HBs
# [12] = target: T10, consensus S-HBs protein of HBV genotype G (ConsHBAg_G) (hepatitis B virus genotype G (consensus), UniProt Q9IBI3 174-399); assay: flow cytometry, S-HBs-transfected 293-F cells
# T10 construct: also called genotype G S-HBs
# [13] = target: T11, consensus S-HBs protein of HBV genotype H (ConsHBAg_H) (hepatitis B virus genotype H (consensus), UniProt Q8JMZ6 175-400); assay: flow cytometry, S-HBs-transfected 293-F cells
# T11 construct: also called genotype H S-HBs
# [14] = target: T2, consensus S-HBs protein of HBV genotype …; assay: flow cytometry, S-HBs-transfected 293-F cells
# [15] = target: genotype D S-HBs mutant protein T126A (hepatitis B virus genotype D, UniProt P03138 164-389); assay: flow cytometry, S-HBs-transfected 293-F cells
# [16] = target: genotype D S-HBs mutant protein M133T (hepatitis B virus genotype D, UniProt P03138 164-389); assay: flow cytometry, S-HBs-transfected 293-F cells
# [17] = target: genotype D S-HBs mutant protein Y134V (hepatitis B virus genotype D, UniProt P03138 164-389); assay: flow cytometry, S-HBs-transfected 293-F cells
# [18] = target: genotype D S-HBs mutant protein G145R (hepatitis B virus genotype D, UniProt P03138 164-389); assay: flow cytometry, S-HBs-transfected 293-F cells
# [19] = target: genotype D S-HBs mutant protein N146S (hepatitis B virus genotype D, UniProt P03138 164-389); assay: flow cytometry, S-HBs-transfected 293-F cells
# [20] = target: T9, consensus S-HBs protein of HBV genotype …; assay: flow cytometry on cells expressing genotype-specific S-HBs
# [21] = target: T11, consensus S-HBs protein of HBV genotype …; assay: as above
# [22] = target: T5, consensus S-HBs protein of HBV genotype …; assay: as above
# [23] = target: T6, consensus S-HBs protein of HBV genotype …; assay: as above
# [24] = target: T7, consensus S-HBs protein of HBV genotype …; assay: as above
# [25] = target: T10, consensus S-HBs protein of HBV genotype …; assay: as above
# [26] = target: T2, consensus S-HBs protein of HBV genotype …; assay: as above
# T9 sequence (Q05496 175-400, tags left off): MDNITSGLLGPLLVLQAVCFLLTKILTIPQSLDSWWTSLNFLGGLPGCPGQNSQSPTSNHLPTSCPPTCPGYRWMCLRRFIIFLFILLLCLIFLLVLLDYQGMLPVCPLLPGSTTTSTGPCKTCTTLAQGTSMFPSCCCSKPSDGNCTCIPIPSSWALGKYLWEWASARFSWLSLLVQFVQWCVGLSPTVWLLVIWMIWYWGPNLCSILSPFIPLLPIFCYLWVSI
# T11 sequence (Q8JMZ6 175-400, tags left off): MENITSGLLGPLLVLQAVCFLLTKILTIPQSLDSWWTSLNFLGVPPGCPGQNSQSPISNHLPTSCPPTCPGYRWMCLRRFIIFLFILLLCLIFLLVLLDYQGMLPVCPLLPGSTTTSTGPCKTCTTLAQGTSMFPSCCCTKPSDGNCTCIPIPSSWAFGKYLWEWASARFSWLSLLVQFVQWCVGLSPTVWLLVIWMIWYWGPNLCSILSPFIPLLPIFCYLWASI
Binder,HBV-gD in vitro neutralization (IC50 µg/ml) [1],AUC (serotype binding) [2],AUC (serotype binding) [3],EC50 [4],EC50 [5],% of bound S-HBs-expressing cells [6],% of bound S-HBs-expressing cells [7],% of bound S-HBs-expressing cells [8],% of bound S-HBs-expressing cells [9],% of bound S-HBs-expressing cells [10],% of bound S-HBs-expressing cells [11],% of bound S-HBs-expressing cells [12],% of bound S-HBs-expressing cells [13],% of bound S-HBs-expressing cells [14],% of bound S-HBs-expressing cells [15],% of bound S-HBs-expressing cells [16],% of bound S-HBs-expressing cells [17],% of bound S-HBs-expressing cells [18],% of bound S-HBs-expressing cells [19],binding result [20],other results
Bc1.180 (antibody) heavy: not shown light: EIVLTQSPGTLSLSPGNRATLSCRASQSVTSNYFAWYQHKPGQAPRVLIYGASSRATGIPDRFSGSGSGTDFTLTISRLEPEDFAVYYCQQFGSLPYTFGQGTKLEIKRTVAAPSVFIFPPSDEQLKSGTASVVCLLNNFYPREAKVQWKVDNALQSGNSQESVTEQDSKDSTYSLSSTLTLSKADYEKHKVYACEVTHQGLSSPVTKSFNRGEC,5e-08 µg/mL,30,23,65.3 ng/mL,310 ng/mL,57%,45%,43%,47%,46%,42%,39%,55%,22%,38%,25%,25%,14%,27%,–,–
"Bc4.204 (antibody, human IgG1, lambda) heavy: not shown light: QSALTQPRSVSGSPGQSVTISCIGTNSDFGRYDYVSWYQQHPDKAPKLLIYDVSQRPSGVPDRFSGSKSGYTASLIISGLQADDEAEYFCCSYAGSFNLVFGGGTKVTVLGQPKAAPSVTLFPPSSEELQANKATLVCLISDFYPGAVTVAWKADSSPVKAGVETTTPSKQSNNKYAASSYLSLTPEQWKSHRSYSCQVTHEGSTVEKTVAPTECS",0.000229 µg/mL,36,36,15.6 ng/mL,15 ng/mL,74%,65%,65%,68%,65%,0%,71%,1%,58%,60%,59%,57%,55%,53%,no binding,binding result [21]: no binding
"Bv4.104 (antibody, also called PIBv4.104) heavy: not shown light: QSALTQPASVSGSPGQSITISCTGTSSDVGNYKSVSWYQHHPGKAPKFMIYEGTQRPSGVSNRFSGSKSGNTASLTISGLQAEDEAHYYCCSYAGSSTWLFGGGTKLTVLGQPKAAPSVTLFPPSSEELQANKATLVCLISDFYPGAVTVAWKADSSPVKAGVETTTPSKQSNNKYAASSYLSLTPEQWKSHRSYSCQVTHEGSTVEKTVAPTECS",–,7,37,6580 ng/mL,4.6 ng/mL,1%,1%,5%,73%,73%,1%,1%,1%,1%,64%,64%,60%,54%,63%,no binding,binding result [22]: no binding; binding result [23]: no binding; binding result [24]: no binding; binding result [25]: no binding; binding result [21]: no binding; binding result [26]: no binding
Bc3.106 (antibody) heavy: not shown light: DIQMTQSPSSLSASVGDRVTITCRASQGIRNDLGWYQQKPGKAPKRLIYAASSLQSGVPSRFSGSGSGTEFTLTISSLQPEDFATYYCLQHNSYPRTFGQGTKVEIKRTVAAPSVFIFPPSDEQLKSGTASVVCLLNNFYPREAKVQWKVDNALQSGNSQESVTEQDSKDSTYSLSSTLTLSKADYEKHKVYACEVTHQGLSSPVTKSFNRGEC,1.39e-07 µg/mL,36,37,42.1 ng/mL,19.3 ng/mL,70%,55%,83%,62%,59%,55%,65%,59%,53%,71%,66%,69%,67%,63%,–,–
